The record followed here is FireProtDB (doi:10.1074/jbc.m110728200).

B1: Lysozyme C, P61626 (parent)
chain: MKALIVLGLVLLSVTVQGKVFERCELARTLKRLGMDGYRGISLANWMCLAKWESGYNTRATNYNAGDRSTDYGIFQINSRYWCNDGKTPGAVNACHLSCSALLQDNIADAVACAKRVVRDPQGIRAWVAWRNRCQNRDVRQYVQGCGV

The first series covers variants of B1. Conditions: Homo sapiens; pH 2.61; Thermal; DSC; Gly-HCl 0.05 M; structure 1LZ1; whole UniProt chain shown.
One may read the Tm as the temperature at which the thermal transition is half complete. MKALIVLGLVLLSVTVQGKVFERCELARTLKRLGMDGYRGISLANWMCLAKWESGYNTRATNYNAGDRSTDYGIFQINSRYWCNDGKTPGASNACHLSCSALLQDNIADAVACAKRVVRDPQGIRAWVAWRNRCQNRDVRQYVQGCGV [V92S]: the Tm amounted to 62.1 °C, the “unfolding enthalpy (calorimetric)” value stood at 105 kcal/mol and the “unfolding enthalpy (van 't Hoff)” value was found to be 110 kcal/mol.

The same series, now with this note: Homo sapiens; pH 2.7; 64.9 °C; Thermal; DSC; Gly-HCl 0.05 M; structure 1LZ1; whole UniProt chain shown.
For MKALIVLGLVLLSVTVQGKVFERCELARTLKRLGMDGYRGISLANWMCLAKWESGYNTRATNYNAGDRSTDYGIFQINSRYWCNDGKTPGASNACHLSCSALLQDNIADAVACAKRVVRDPQGIRAWVAWRNRCQNRDVRQYVQGCGV [V92S], the “ddG of mutation (higher = less stable)” value turned out to be 0.38 kcal/mol, the “heat capacity change of unfolding” value came to 1.22 kcal/mol/K and the “unfolding enthalpy (calorimetric)” value came to 108 kcal/mol.

Regarding MKALIVLGLVLLSVTVQGKVFERCELARTLKRLGMDGYRGISLANWMCLAKWESGYNTRATNYNAGDRSTDYGIFQINSRYWCNDGKTPGADNACHLSCSALLQDNIADAVACAKRVVRDPQGIRAWVAWRNRCQNRDVRQYVQGCGV [V92D], the “ddG of mutation (higher = less stable)” value came out at 0.43 kcal/mol, the “heat capacity change of unfolding” value worked out at 1.58 kcal/mol/K and the “unfolding enthalpy (calorimetric)” value stood at 107 kcal/mol.

The series is the same for the next values; noted with them: Homo sapiens; pH 2.7; Thermal; DSC; Gly-HCl 0.05 M; structure 1LZ1; whole UniProt chain shown.
Turning to MKALIVLGLVLLSVTVQGKVFERCELARTLKRLGMDGYRGISLANWMCLAKWESGYNTRATNYNAGDRSTDYGIFQINSRYWCNDGKTPGASNACHLSCSALLQDNIADAVACAKRVVRDPQGIRAWVAWRNRCQNRDVRQYVQGCGV [V92S], the Tm came to 64.9 °C; the “change of melting temperature, mutant - wild type (higher = more stable)” value (“change of melting temperature, mutant” for short) worked out at 0 °C; the “heat capacity change of unfolding” value amounted to 1.22 kcal/mol/K; the “unfolding enthalpy (calorimetric)” value turned out to be 108 kcal/mol.

On to MKALIVLGLVLLSVTVQGKVFERCELARTLKRLGMDGYRGISLANWMCLAKWESGYNTRATNYNAGDRSTDYGIFQINSRYWCNDGKTPGADNACHLSCSALLQDNIADAVACAKRVVRDPQGIRAWVAWRNRCQNRDVRQYVQGCGV [V92D], for which the Tm is 63.5 °C and the “change of melting temperature, mutant” value is -1.4 °C.

For MKALIVLGLVLLSVTVQGKVFERCELARTLKRLGMDGYRGISLANWMCLAKWESGYNTRATNYNAGDRSTDYGIFQINSRYWCNDGKTPGAVNACHLSCSALLQDNIADAVACAKRVVRDPQGIRAWNAWRNRCQNRDVRQYVQGCGV [V128N], the melting temperature (Tm) was 65.1 °C and the “change of melting temperature, mutant” value stood at 0.2 °C.

Turning to MKALIVLGLVLLSVTVQGKVFERCELARTLKRLGMDGYRGISLANWMCLAKWESGYNTRATNYNAGDRSTDYGIFQINSRYWCNDGKTPGAVNACHLSCSALLQDNIADAVACAKRVVRDPQGIRAWDAWRNRCQNRDVRQYVQGCGV [V128D], the Tm stood at 65.4 °C and the “change of melting temperature, mutant” value worked out at 0.5 °C.

Still in this series, the particulars now being: Homo sapiens; pH 2.83; Thermal; DSC; Gly-HCl 0.05 M; structure 1LZ1; whole UniProt chain shown.
For the variant MKALIVLGLVLLSVTVQGKVFERCELARTLKRLGMDGYRGISLANWMCLAKWESGYNTRATNYNAGDRSTDYGIFQINSRYWCNDGKTPGASNACHLSCSALLQDNIADAVACAKRVVRDPQGIRAWVAWRNRCQNRDVRQYVQGCGV [V92S], the midpoint of thermal melting (Tm) was 66 °C, the “unfolding enthalpy (calorimetric)” value amounted to 109 kcal/mol and the “unfolding enthalpy (van 't Hoff)” value amounted to 115 kcal/mol.

Regarding MKALIVLGLVLLSVTVQGKVFERCELARTLKRLGMDGYRGISLANWMCLAKWESGYNTRATNYNAGDRSTDYGIFQINSRYWCNDGKTPGADNACHLSCSALLQDNIADAVACAKRVVRDPQGIRAWVAWRNRCQNRDVRQYVQGCGV [V92D], the Tm amounted to 65.9 °C, the “unfolding enthalpy (calorimetric)” value amounted to 107 kcal/mol and the “unfolding enthalpy (van 't Hoff)” value came to 115 kcal/mol.

MKALIVLGLVLLSVTVQGKVFERCELARTLKRLGMDGYRGISLANWMCLAKWESGYNTRATNYNAGDRSTDYGIFQINSRYWCNDGKTPGAVNACHLSCSALLQDNIADAVACAKRVVRDPQGIRAWNAWRNRCQNRDVRQYVQGCGV [V128N]: the Tm came out at 67.2 °C, the “unfolding enthalpy (calorimetric)” value stood at 113 kcal/mol and the “unfolding enthalpy (van 't Hoff)” value came out at 115 kcal/mol.

Staying with this series, now noted: Homo sapiens; pH 3.28; Thermal; DSC; Gly-HCl 0.05 M; structure 1LZ1; whole UniProt chain shown.
For the variant MKALIVLGLVLLSVTVQGKVFERCELARTLKRLGMDGYRGISLANWMCLAKWESGYNTRATNYNAGDRSTDYGIFQINSRYWCNDGKTPGASNACHLSCSALLQDNIADAVACAKRVVRDPQGIRAWVAWRNRCQNRDVRQYVQGCGV [V92S], the Tm was determined as 72.2 °C, the “unfolding enthalpy (calorimetric)” value was 117 kcal/mol and the “unfolding enthalpy (van 't Hoff)” value worked out at 122 kcal/mol.

The same series, now with this note: Homo sapiens; pH 2.6; Thermal; DSC; Gly-HCl 0.05 M; structure 1LZ1; whole UniProt chain shown.
Regarding MKALIVLGLVLLSVTVQGKVFERCELARTLKRLGMDGYRGISLANWMCLAKWESGYNTRATNYNAGDRSTDYGIFQINSRYWCNDGKTPGADNACHLSCSALLQDNIADAVACAKRVVRDPQGIRAWVAWRNRCQNRDVRQYVQGCGV [V92D], the Tm came out at 61.7 °C, the “unfolding enthalpy (calorimetric)” value was found to be 103 kcal/mol and the “unfolding enthalpy (van 't Hoff)” value worked out at 110 kcal/mol.

The series is the same for the next values; noted with them: Homo sapiens; pH 2.98; Thermal; DSC; Gly-HCl 0.05 M; structure 1LZ1; whole UniProt chain shown.
MKALIVLGLVLLSVTVQGKVFERCELARTLKRLGMDGYRGISLANWMCLAKWESGYNTRATNYNAGDRSTDYGIFQINSRYWCNDGKTPGADNACHLSCSALLQDNIADAVACAKRVVRDPQGIRAWVAWRNRCQNRDVRQYVQGCGV [V92D]: the Tm was determined as 68.1 °C, the “unfolding enthalpy (calorimetric)” value was 112 kcal/mol and the “unfolding enthalpy (van 't Hoff)” value amounted to 118 kcal/mol.

Still in this series, the particulars now being: Homo sapiens; pH 3.1; Thermal; DSC; Gly-HCl 0.05 M; structure 1LZ1; whole UniProt chain shown.
As for MKALIVLGLVLLSVTVQGKVFERCELARTLKRLGMDGYRGISLANWMCLAKWESGYNTRATNYNAGDRSTDYGIFQINSRYWCNDGKTPGADNACHLSCSALLQDNIADAVACAKRVVRDPQGIRAWVAWRNRCQNRDVRQYVQGCGV [V92D], the Tm came out at 70.1 °C, the “unfolding enthalpy (calorimetric)” value came to 115 kcal/mol and the “unfolding enthalpy (van 't Hoff)” value came out at 123 kcal/mol.

The same series, now with this note: Homo sapiens; pH 3.25; Thermal; DSC; Gly-HCl 0.05 M; structure 1LZ1; whole UniProt chain shown.
Regarding MKALIVLGLVLLSVTVQGKVFERCELARTLKRLGMDGYRGISLANWMCLAKWESGYNTRATNYNAGDRSTDYGIFQINSRYWCNDGKTPGADNACHLSCSALLQDNIADAVACAKRVVRDPQGIRAWVAWRNRCQNRDVRQYVQGCGV [V92D], the Tm was 72.5 °C, the “unfolding enthalpy (calorimetric)” value turned out to be 120 kcal/mol and the “unfolding enthalpy (van 't Hoff)” value amounted to 127 kcal/mol.

Staying with this series, now noted: Homo sapiens; pH 2.64; Thermal; DSC; Gly-HCl 0.05 M; structure 1LZ1; whole UniProt chain shown.
Turning to MKALIVLGLVLLSVTVQGKVFERCELARTLKRLGMDGYRGISLANWMCLAKWESGYNTRATNYNAGDRSTDYGIFQINSRYWCNDGKTPGAVNACHLSCSALLQDNIADAVACAKRVVRDPQGIRAWNAWRNRCQNRDVRQYVQGCGV [V128N], the Tm is 64 °C, the “unfolding enthalpy (calorimetric)” value turned out to be 108 kcal/mol and the “unfolding enthalpy (van 't Hoff)” value was determined as 109 kcal/mol.

The same series, now with this note: Homo sapiens; pH 3.04; Thermal; DSC; Gly-HCl 0.05 M; structure 1LZ1; whole UniProt chain shown.
Consider MKALIVLGLVLLSVTVQGKVFERCELARTLKRLGMDGYRGISLANWMCLAKWESGYNTRATNYNAGDRSTDYGIFQINSRYWCNDGKTPGAVNACHLSCSALLQDNIADAVACAKRVVRDPQGIRAWNAWRNRCQNRDVRQYVQGCGV [V128N], for which the Tm stood at 70.6 °C, the “unfolding enthalpy (calorimetric)” value came to 118 kcal/mol and the “unfolding enthalpy (van 't Hoff)” value is 118 kcal/mol.

Staying with this series, now noted: Homo sapiens; pH 3.13; Thermal; DSC; Gly-HCl 0.05 M; structure 1LZ1; whole UniProt chain shown.
Consider MKALIVLGLVLLSVTVQGKVFERCELARTLKRLGMDGYRGISLANWMCLAKWESGYNTRATNYNAGDRSTDYGIFQINSRYWCNDGKTPGAVNACHLSCSALLQDNIADAVACAKRVVRDPQGIRAWNAWRNRCQNRDVRQYVQGCGV [V128N], for which the Tm turned out to be 71.7 °C, the “unfolding enthalpy (calorimetric)” value came to 120 kcal/mol and the “unfolding enthalpy (van 't Hoff)” value amounted to 122 kcal/mol.

Still in this series, the particulars now being: Homo sapiens; pH 2.63; Thermal; DSC; Gly-HCl 0.05 M; structure 1LZ1; whole UniProt chain shown.
Turning to MKALIVLGLVLLSVTVQGKVFERCELARTLKRLGMDGYRGISLANWMCLAKWESGYNTRATNYNAGDRSTDYGIFQINSRYWCNDGKTPGAVNACHLSCSALLQDNIADAVACAKRVVRDPQGIRAWDAWRNRCQNRDVRQYVQGCGV [V128D], the Tm worked out at 63.9 °C, the “unfolding enthalpy (calorimetric)” value came to 90.3 kcal/mol and the “unfolding enthalpy (van 't Hoff)” value turned out to be 108 kcal/mol.

The same series, now with this note: Homo sapiens; pH 2.84; Thermal; DSC; Gly-HCl 0.05 M; structure 1LZ1; whole UniProt chain shown.
For the variant MKALIVLGLVLLSVTVQGKVFERCELARTLKRLGMDGYRGISLANWMCLAKWESGYNTRATNYNAGDRSTDYGIFQINSRYWCNDGKTPGAVNACHLSCSALLQDNIADAVACAKRVVRDPQGIRAWDAWRNRCQNRDVRQYVQGCGV [V128D], the Tm was 67.9 °C, the “unfolding enthalpy (calorimetric)” value is 96.8 kcal/mol and the “unfolding enthalpy (van 't Hoff)” value was 112 kcal/mol.

Staying with this series, now noted: Homo sapiens; pH 3; Thermal; DSC; Gly-HCl 0.05 M; structure 1LZ1; whole UniProt chain shown.
As to MKALIVLGLVLLSVTVQGKVFERCELARTLKRLGMDGYRGISLANWMCLAKWESGYNTRATNYNAGDRSTDYGIFQINSRYWCNDGKTPGAVNACHLSCSALLQDNIADAVACAKRVVRDPQGIRAWDAWRNRCQNRDVRQYVQGCGV [V128D], the Tm is 70.4 °C, the “unfolding enthalpy (calorimetric)” value is 103 kcal/mol and the “unfolding enthalpy (van 't Hoff)” value amounted to 120 kcal/mol.

Still in this series, the particulars now being: Homo sapiens; pH 3.34; Thermal; DSC; Gly-HCl 0.05 M; structure 1LZ1; whole UniProt chain shown.
For the variant MKALIVLGLVLLSVTVQGKVFERCELARTLKRLGMDGYRGISLANWMCLAKWESGYNTRATNYNAGDRSTDYGIFQINSRYWCNDGKTPGAVNACHLSCSALLQDNIADAVACAKRVVRDPQGIRAWDAWRNRCQNRDVRQYVQGCGV [V128D], the Tm was 75.5 °C, the “unfolding enthalpy (calorimetric)” value was 108 kcal/mol and the “unfolding enthalpy (van 't Hoff)” value came to 125 kcal/mol.
